Data as given in US20040197334A1 (TECHNION RESEARCH AND DEVELOPMENT FOUNDATION, published 2004).
Values joined by “and” are separate entries in the source; they are usually repeats but may differ in a detail not shown here. Equal values may be shown once. No end group written: not given here.

Assays:
streptavidin = streptavidin (UniProt P22629 37-163); assay: ELISA, FIG. 1b
[1] = target: T1, human P-glycoprotein (Pgp), 170 kDa, encoded by the mdr1 gene, on the surface of MDR human carcinoma cells … (human, UniProt P08183 1-1280); assay: cell-based or functional assay
T1 sequence (P08183 whole entry): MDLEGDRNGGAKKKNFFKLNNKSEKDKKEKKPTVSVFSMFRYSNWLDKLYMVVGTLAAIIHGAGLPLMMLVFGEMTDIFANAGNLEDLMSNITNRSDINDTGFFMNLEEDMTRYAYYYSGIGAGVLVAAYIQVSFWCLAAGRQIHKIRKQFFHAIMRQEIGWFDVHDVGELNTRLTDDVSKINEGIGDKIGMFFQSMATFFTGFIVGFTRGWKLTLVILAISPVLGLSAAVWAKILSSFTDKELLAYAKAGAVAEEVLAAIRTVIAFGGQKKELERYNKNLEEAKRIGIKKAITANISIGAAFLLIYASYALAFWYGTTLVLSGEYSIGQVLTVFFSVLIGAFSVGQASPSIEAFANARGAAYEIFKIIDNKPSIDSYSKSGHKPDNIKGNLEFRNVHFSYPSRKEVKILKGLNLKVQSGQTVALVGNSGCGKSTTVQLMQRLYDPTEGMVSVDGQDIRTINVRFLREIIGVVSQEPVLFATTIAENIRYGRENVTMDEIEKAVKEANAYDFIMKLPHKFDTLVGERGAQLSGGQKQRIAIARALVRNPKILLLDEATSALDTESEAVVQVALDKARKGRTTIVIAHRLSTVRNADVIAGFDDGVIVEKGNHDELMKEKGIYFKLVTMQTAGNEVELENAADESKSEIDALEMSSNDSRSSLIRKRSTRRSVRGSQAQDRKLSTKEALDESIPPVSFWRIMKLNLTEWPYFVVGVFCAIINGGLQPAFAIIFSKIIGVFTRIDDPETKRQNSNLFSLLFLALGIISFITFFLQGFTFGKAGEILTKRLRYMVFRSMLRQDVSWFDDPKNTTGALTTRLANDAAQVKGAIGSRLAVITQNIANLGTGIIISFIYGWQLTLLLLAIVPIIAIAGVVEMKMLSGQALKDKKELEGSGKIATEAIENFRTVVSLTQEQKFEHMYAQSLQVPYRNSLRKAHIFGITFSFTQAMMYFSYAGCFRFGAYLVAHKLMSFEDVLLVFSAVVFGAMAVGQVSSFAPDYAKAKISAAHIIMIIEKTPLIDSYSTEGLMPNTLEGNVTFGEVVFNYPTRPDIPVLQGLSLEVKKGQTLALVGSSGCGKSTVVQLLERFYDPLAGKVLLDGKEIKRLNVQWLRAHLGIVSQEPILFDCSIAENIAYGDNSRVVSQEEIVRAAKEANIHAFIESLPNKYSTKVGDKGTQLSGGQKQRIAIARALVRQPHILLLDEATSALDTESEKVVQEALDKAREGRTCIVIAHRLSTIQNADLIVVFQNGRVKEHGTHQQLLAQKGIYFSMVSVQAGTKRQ

[2] = target: T1, human P-glycoprotein (Pgp), 170 kDa, …; assay: flow cytometry on MDR, Pgp-overexpressing 2780^ADR cells, A2 scFv 50 µg/ml
[3] = target: T2, biotinylated target Pgp-derived peptide having the amino acid sequence of SEQ ID NO:1 (GEMTDIFANAGNL) (human, also: biotinylated, position not given here); assay: saturation ELISA on plate-bound biotinylated peptide; the filing calls the value the affinity constant
T2 construct: also called target peptide
T2 peptide: GEMTDIFANAGNL

[4] = target: T2, biotinylated target Pgp-derived peptide …; assay: competition radioimmunoassay, cold A2 scFv against [125I]-labeled A2 scFv on plate-bound peptide; the filing calls the value the affinity constant

Sequence of streptavidin (P22629 37-163 limits assumed): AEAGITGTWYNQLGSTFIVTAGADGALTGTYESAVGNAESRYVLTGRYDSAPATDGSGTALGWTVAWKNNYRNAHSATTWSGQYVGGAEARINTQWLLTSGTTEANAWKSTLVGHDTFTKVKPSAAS

B1: A2 single-chain Fv (scFv) (scFv)
scFv: QVQLQQSGPDLVKPGASVKISCKASGYSFTGYYMHWVKQSHGKSLEWIGRANPNNGGTSYNQKFKGKAILTVDKSSSTAYMELRSLTSEDSAVYYCARWDGAYWGQGTLVTVSSGGGGSGGGGSGGGGSDVVMTQTPLSLPVSLGDQASISCRSSQSIVHSNGNTYLEWYLQKPGQSPKLLIYKVSNRFSGVPDRFSGSGSGTDFTLKISRVEAEDLGVYYCFQGSHVPFTFGSGTKLELKEQKLISEEDLNHHHHHH
notes: Soluble monomeric scFv of about 30 kDa, expressed in E. coli BL21 and purified from the periplasm; In the radioimmunoassay the tracer was labeled with 125I by the Bolton-Hunter reagent; also called A2 scFv; A2 scFv antibody
binding result (streptavidin): no binding
concentration of A2 scFv that inhibits 50% drug-efflux activity (IC50), calcein accumulation in 2780^ADR cells [1]: ~65 µg/ml and ~2.6 µM
fold increase in fluorescent intensity [2]: 10 fold
EC50 [3]: ~150 nM
IC50 [4]: ~130 nM
